Data: PMC7615804, “Molecular mechanism of dynein-dynactin complex assembly by LIS1” (Science (New York, N.Y.), 2024)
Values belong to the binder of their own block, whether it stands above or below them.

B4: GST-Psc-DCTN1(residues 350-547)-GFP-6xHis (domain or fragment, human (from the printed UniProt entry), UniProt Q14203-1 350-547, looked up)
chain: GSDGAASSYQLKQLEEQNARLKDALVRMRDLSSSEKQEHVKLQKLMEKKNQELEVVRQQRERLQEELSQAESTIDELKEQVDAALGAEEMVEMLTDRNLNLEEKVRELRETVGDLEAMNEMNDELQENARETELELREQLDMAGARVREAQKRVEAAQETVADYQQTIKKYRQLTAHLQDVNRELTNQQEASVERQQQ
notes: DCTN1/p150glued, UniProt Q14203-1, residues 350-547 (CC1B fragment); also called CC1B; p150-CC1B; source: SoluBL21 E. coli, purified (Ni-NTA, glutathione resin, SEC)

Columns and labels:
[1] = molecular target: T1, mouse JIP3^185-505 (JIP3 residues 186-505) (mouse, UniProt Q9ESN9-5 186-505); assay: pull-down; pull-downs with mouse JIP3 186-505 constructs, Arf6 and the recombinant pointed end complex (Fig. S3E); purified recombinant proteins; which protein was held on the resin is not told in the text shown; details: both partners purified
T1 construct: 2CT vector; also called JIP3 fragment containing the Spindly motif and LZII; JIP3 186-505; source: SoluBL21 E. coli, purified (Ni-NTA, TEV, Strep-Tactin, SEC); not shown: His6, N-terminal, cleaved; MBP, N-terminal, cleaved
T1 sequence (looked up): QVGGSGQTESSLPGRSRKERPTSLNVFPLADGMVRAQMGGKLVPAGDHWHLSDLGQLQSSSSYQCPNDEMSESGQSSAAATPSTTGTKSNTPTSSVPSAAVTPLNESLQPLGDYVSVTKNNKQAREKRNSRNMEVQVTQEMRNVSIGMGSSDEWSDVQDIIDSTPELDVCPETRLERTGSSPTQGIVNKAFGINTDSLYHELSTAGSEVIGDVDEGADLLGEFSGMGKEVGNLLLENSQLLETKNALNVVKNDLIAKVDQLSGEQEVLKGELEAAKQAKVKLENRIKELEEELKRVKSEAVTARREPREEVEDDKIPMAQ

[2] = molecular target: T2, mouse JIP3 186-505_L383A/E386A (mouse, UniProt Q9ESN9-5 186-505, L383A | E386A); assay: as above; details: both partners purified
T2 construct: JIP3, mouse cDNA, isoform 3a, UniProt Q9ESN9-5, residues 186-505 with L383A and E386A; also called Spindly motif mutant (L383A/E386A); source: SoluBL21 E. coli, purified (Ni-NTA, TEV, Strep-Tactin, SEC); not shown: His6, N-terminal, cleaved; MBP, N-terminal, cleaved
T2 sequence (looked up): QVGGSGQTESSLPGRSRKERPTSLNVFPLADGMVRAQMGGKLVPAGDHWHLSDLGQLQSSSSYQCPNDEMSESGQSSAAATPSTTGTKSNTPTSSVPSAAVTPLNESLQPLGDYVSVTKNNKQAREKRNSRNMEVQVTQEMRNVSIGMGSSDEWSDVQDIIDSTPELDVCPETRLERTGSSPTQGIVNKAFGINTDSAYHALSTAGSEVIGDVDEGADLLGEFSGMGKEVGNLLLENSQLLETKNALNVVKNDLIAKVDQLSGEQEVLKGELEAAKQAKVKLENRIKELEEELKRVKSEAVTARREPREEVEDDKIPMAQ

[3] = molecular target: T3, dynactin pointed end complex (ZZ-TEV-Arp11, p62, p25, p27) (human, UniProt Q9NZ32 1-417; Q9UJW0-1 1-460; Q9BTE1 1-182; O00399 1-190); assay: SEC; pointed end complex and JIP3^1-560 (or its Spindly mutant) mixed 1:1 at 10 μM final in GF150 buffer, 30 min at 4°C, Superose 6 Increase 3.2/300; details: both partners purified
T3 construct: Arp11, human, subunit of the dynactin pointed end complex; p62, human, isoform A, UniProt Q9UJW0-1; p25, human, subunit of the dynactin pointed end complex; p27, human, subunit of the dynactin pointed end complex; source: pAceBac1 vector; copies: + + +
T3 sequence (Q9NZ32 whole entry, chain 1 of 4, canonical isoform): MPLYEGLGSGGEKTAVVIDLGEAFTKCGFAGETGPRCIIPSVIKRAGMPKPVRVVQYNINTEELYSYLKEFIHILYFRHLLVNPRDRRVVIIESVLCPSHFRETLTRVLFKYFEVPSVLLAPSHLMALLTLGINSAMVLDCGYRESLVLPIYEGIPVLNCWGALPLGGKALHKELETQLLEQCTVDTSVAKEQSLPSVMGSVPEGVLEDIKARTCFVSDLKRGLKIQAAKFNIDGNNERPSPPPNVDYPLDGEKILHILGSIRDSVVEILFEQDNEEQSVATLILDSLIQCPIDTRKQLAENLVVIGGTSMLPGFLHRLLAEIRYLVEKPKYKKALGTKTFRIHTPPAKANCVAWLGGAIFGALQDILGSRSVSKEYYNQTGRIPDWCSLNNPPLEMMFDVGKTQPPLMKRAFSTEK
T3 sequence (Q9UJW0 whole entry, chain 2 of 4, canonical isoform): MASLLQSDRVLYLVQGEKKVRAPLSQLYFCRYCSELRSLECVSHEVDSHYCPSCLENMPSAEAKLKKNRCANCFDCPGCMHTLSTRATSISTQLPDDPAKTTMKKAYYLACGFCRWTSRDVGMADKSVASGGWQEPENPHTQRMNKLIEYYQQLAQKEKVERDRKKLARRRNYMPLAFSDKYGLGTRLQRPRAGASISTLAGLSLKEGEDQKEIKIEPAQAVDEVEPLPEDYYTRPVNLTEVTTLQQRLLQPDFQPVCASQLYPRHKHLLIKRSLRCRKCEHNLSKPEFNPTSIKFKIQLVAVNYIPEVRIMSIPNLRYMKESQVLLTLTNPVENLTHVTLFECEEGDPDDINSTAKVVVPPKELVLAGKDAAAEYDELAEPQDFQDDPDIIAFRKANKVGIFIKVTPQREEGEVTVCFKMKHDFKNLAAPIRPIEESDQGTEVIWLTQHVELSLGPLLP
T3 sequence (Q9BTE1 whole entry, chain 3 of 4, canonical isoform): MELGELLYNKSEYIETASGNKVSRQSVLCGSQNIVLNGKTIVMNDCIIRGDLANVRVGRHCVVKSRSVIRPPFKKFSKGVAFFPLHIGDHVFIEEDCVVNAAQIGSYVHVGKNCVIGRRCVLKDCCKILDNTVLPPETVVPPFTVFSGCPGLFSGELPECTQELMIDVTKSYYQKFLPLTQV
T3 sequence (O00399 whole entry, chain 4 of 4, canonical isoform): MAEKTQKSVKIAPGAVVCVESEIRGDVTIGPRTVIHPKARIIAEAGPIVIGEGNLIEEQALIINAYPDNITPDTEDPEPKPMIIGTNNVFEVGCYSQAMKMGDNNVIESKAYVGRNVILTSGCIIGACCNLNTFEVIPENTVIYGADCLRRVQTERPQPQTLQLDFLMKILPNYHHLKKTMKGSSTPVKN

[4] = molecular target: the molecule itself; assay: SEC-MALS; 70 μL at 1 mg/mL, GF150 buffer, Superdex 200 5/150
LIS1 (full length human) = molecular target: T4, LIS1 (full length human) (human, UniProt P43034 1-410); assay: pull-down; GST pull-down on glutathione resin with GST-CC1A/B or CC1B as bait; LIS1, LIS1-N or MBP-DIC-N as prey; GST-PD buffer (50 mM HEPES pH 7.5, 100 mM KCl, 1 mM MgCl2, 1 mM DTT), room temperature; Coomassie-stained SDS-PAGE; details: both partners purified
T4 construct: LIS1, human, full length, UniProt P43034 (printed for the AlphaFold2 prediction); A version with an additional C-terminal SNAPf tag also exists; also called wild-type LIS1; source: Sf9, purified (IgG Sepharose, TEV, SEC); not shown: ZZ, N-terminal, cleaved
T4 sequence (looked up): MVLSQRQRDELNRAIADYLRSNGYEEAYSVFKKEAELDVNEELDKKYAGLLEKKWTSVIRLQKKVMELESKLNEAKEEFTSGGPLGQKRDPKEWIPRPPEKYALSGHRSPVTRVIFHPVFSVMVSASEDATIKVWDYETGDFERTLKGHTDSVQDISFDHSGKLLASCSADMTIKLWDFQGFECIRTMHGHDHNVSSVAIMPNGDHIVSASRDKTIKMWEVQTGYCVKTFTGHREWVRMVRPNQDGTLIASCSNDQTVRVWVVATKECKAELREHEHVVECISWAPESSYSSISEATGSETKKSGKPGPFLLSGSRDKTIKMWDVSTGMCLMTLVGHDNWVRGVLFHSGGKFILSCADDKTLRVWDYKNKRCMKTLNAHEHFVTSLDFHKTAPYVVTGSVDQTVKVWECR

[5] = molecular target: B4; assay: as above; details: both partners purified
[6] = molecular target: T5, GST-Psc-DCTN1(residues 214-547)-GFP-6xHis (human (from the printed UniProt entry), UniProt Q14203-1 214-547); assay: as above; details: both partners purified
T5 construct: DCTN1/p150glued, UniProt Q14203-1, residues 214-547 (CC1 fragment: CC1A and CC1B); also called GST-CC1A/B; CC1A/B; source: SoluBL21 E. coli, purified (Ni-NTA, glutathione resin, SEC); not shown: GST, N-terminal, kept

B1: human Arf6 (12-175_Q67L) (domain or fragment, UniProt P62330 12-175, looked up)
chain: KEMRILMLGLDAAGKTTILYKLKLGQSVTTIPTVGFNVETVTYKNVKFNVWDVGGLDKIRPLWRHYYTGTQGLIFVVDCADRDRIDEARQELHRIINDREMRDAIILIFANKQDLPDAMKPHEIQEKLGLTRIRDRNWYVQPSCATSGDGLYEGLTWLTSNYKS
notes: Arf6, human, residues 12-175 with Q67L; pGEX-6P-1 vector: N-terminal GST, Prescission site, C-terminal 6xHis; source: SoluBL21 E. coli, purified (Ni-NTA, glutathione resin, SEC)
binding result [1]: binds
binding result [2]: binds

B3: LIS1^mut (natural protein, human, UniProt P43034 1-410, looked up)
chain: MVASQEARDELNRAIADYLRSNGYEEAYSVFKKEAELDVNEELDKEYAGLLEEEWAAVAELAEEVMELRSKLNEAKEEFTSGGPLGQKRDPKEWIPRPPEKYALSGHRSPVTRVIFHPVFSVMVSASEDATIKVWDYETGDFERTLKGHTDSVQDISFDHSGKLLASCSADMTIKLWDFQGFECIRTMHGHDHNVSSVAIMPNGDHIVSASRDKTIKMWEVQTGYCVKTFTGHREWVRMVRPNQDGTLIASCSNDQTVRVWVVATKECKAELREHEHVVECISWAPESSYSSISEATGSETKKSGKPGPFLLSGSRDKTIKMWDVSTGMCLMTLVGHDNWVRGVLFHSGGKFILSCADDKTLRVWDYKNKRCMKTLNAHEHFVTSLDFHKTAPYVVTGSVDQTVKVWECR
notes: The last substitution is printed as E6 9R and read as E69R; source: Sf9, purified (IgG Sepharose, TEV, SEC); not shown: ZZ, N-terminal, cleaved
stoichiometry N [4]: 2

Binder: B4
binding result (LIS1 (full length human)): binds

B7: GCN4-WD40-SNAP (other, human)
chain: GSGSVKQLEDKVEELLSKNAHLENEVARLKKLVSGGPLGQKRDPKEWIPRPPEKYALSGHRSPVTRVIFHPVFSVMVSASEDATIKVWDYETGDFERTLKGHTDSVQDISFDHSGKLLASCSADMTIKLWDFQGFECIRTMHGHDHNVSSVAIMPNGDHIVSASRDKTIKMWEVQTGYCVKTFTGHREWVRMVRPNQDGTLIASCSNDQTVRVWVVATKECKAELREHEHVVECISWAPESSYSSISEATGSETKKSGKPGPFLLSGSRDKTIKMWDVSTGMCLMTLVGHDNWVRGVLFHSGGKFILSCADDKTLRVWDYKNKRCMKTLNAHEHFVTSLDFHKTAPYVVTGSVDQTVKVWECR
notes: LIS1, human, residues 81-410; source: Sf9, purified (IgG Sepharose, TEV, SEC); not shown: ZZ, N-terminal, cleaved; SNAPf, C-terminal, kept
stoichiometry N [4]: 2

Further lines, results first:

binding result [3]: binds
B2: JIP3^1-560 (domain or fragment, human, UniProt Q9UPT6-1 1-560, looked up)
chain: MMEIQMDEGGGVVVYQDDYCSGSVMSERVSGLAGSIYREFERLIHCYDEEVVKELMPLVVNVLENLDSVLSENQEHEVELELLREDNEQLLTQYEREKALRRQAEEKFIEFEDALEQEKKELQIQVEHYEFQTRQLELKAKNYADQISRLEERESEMKKEYNALHQRHTEMIQTYVEHIERSKMQQVGGNSQTESSLPGRRKERPTSLNVFPLADGTVRAQIGGKLVPAGDHWHLSDLGQLQSSSSYQCPQDEMSESGQSSAAATPSTTGTKSNTPTSSVPSAAVTPLNESLQPLGDYGVGSKNSKRAREKRDSRNMEVQVTQEMRNVSIGMGSSDEWSDVQDIIDSTPELDMCPETRLDRTGSSPTQGIVNKAFGINTDSLYHELSTAGSEVIGDVDEGADLLGEFSVRDDFFGMGKEVGNLLLENSQLLETKNALNVVKNDLIAKVDQLSGEQEVLRGELEAAKQAKVKLENRIKELEEELKRVKSEAIIARREPKEEAEDVSSYLCTESDKIPMAQRRRFTRVEMARVLMERNQYKERLMELQEAVRWTEMIRASRE
notes: JIP3, human, UniProt Q9UPT6-1, residues 1-560, codon optimised for Sf9; The bacterial 2CT version would carry a C-terminal Strep-tag II; source: Sf9, purified (IgG Sepharose, TEV, SEC); not shown: His6, N-terminal, cleaved; ZZ, N-terminal, cleaved

binding result [5]: binds
B5: LIS1-N (residues 1-90) (domain or fragment, human, UniProt P43034 1-90, looked up)
chain: MVLSQRQRDELNRAIADYLRSNGYEEAYSVFKKEAELDVNEELDKKYAGLLEKKWTSVIRLQKKVMELESKLNEAKEEFTSGGPLGQKRD
notes: LIS1, human, residues 1-90 (LisH domain and coiled coil); source: Sf9, purified (IgG Sepharose, TEV, SEC); not shown: ZZ, N-terminal, cleaved

binding result [6]: binds
B6: MBP-DIC-N (dynein intermediate chain 1-76) (domain or fragment, human, UniProt Q13409 1-76, looked up)
chain: MSDKSELKAELERKKQRLAQIREEKKRKEEERKKKETDQKKEAVAPVQEESDLEKKRREAEALLQSMGLTPESPIV
notes: dynein intermediate chain, residues 1-76; UniProt Q13409 is printed for DIC in the AlphaFold2 predictions; 2CT vector; the general protocol includes a TEV step, but this construct is named and used as MBP-DIC-N on amylose resin; also called DIC-N construct; source: SoluBL21 E. coli, purified; not shown: MBP, N-terminal, kept
